Data as given in US5780221A, “Identification of enantiomeric ligands” (Whitehead Institute for Biomedical Research, priority 1996, dated 1998).
Square brackets hold non-standard residues; d marks the D form. Ends that are not written are not given here.

Key:
(L)-SH3 = molecular target: T1, (L)-SH3 (Gallus gallus, UniProt P00523); assay: Retention of bacterially expressed (L)-SH3 on peptide affinity column; format: binding; details: residues 81-140 of chicken c-Src
T1 construct: E. coli BL21(DE3) pLysS, pMMHb TrpLE-His9 fusion, cleaved with CNBr
Description: The L- and D-enantiomers of the chicken c-SRC domain were prepared by bacterial expression and chemical synthesis, respectively. The biotinylated, synthetic, 60-amino acid D-SH3 domain was refolded and purified by affinity chromatography, with a D-amino acid version of a known peptide ligand for the SH3 domain (Yu, H., et al., Cell, 76:933 (1994)).
The all D amino acid SH3 domain, sequence […] S-COOH-terminus (SEQ ID No: 1), residues 81-140 of chicken c-SRC, was synthesized on HMP resin (ABI/Perkin Elmer) with an ABI 431A peptide synthesizer and ABI fastmoc cycles (Fmoc chemistry with HBTU activation and capping with acetic anhydride). Protected D-amino acids were obtained from Bachem California., Bachem Bioscience, Advanced Chemtech, and Novabiochem. For D-Ile and D-Thr, the side chain enantiomers were used, in which the chirality of the side chain is also inverted relative to naturally occurring L-Thr and L-Ile. After completion of the synthesis, the NH2 -terminus of the peptide was modified with NHS-LC-biotin II (Pierce). After cleavage, the peptide was lyophilized, dissolved in 6 M guanidine HCl, pH 6.0, and dialyzed against 100 mM NaHPO4 and 100 mM NaCl, pH 6.0, with the use of dialysis tubing with a molecular cutoff of 3,500 daltons (D) (Spectra/Por). […]

[1] = molecular target: T2, lectin concanavalin A (Con A) (Canavalia ensiformis, UniProt P02866); assay: Con A screen of the phage library; format: binding; details: after 3 rounds
T2 construct: mature circularly permuted chain
Description: The library was made by ligation of a random PCR product into Sfi I-cut Fuse 5 vector. After ligation the reaction mixture was extracted with phenol and chloroform, ethanol-precipitated and taken up in 10 mM Tris/1 m mM EDTA (pH 8.0). The ligation product was subsequently transferred into electrocompetent MC1061 cells (Biorad) using a Bio-Rad E. coli pulser and 0.1 cm cuvettes. After non-restrictive growth for 1 hr aliquots of transformed cells were plated on tetracycline-containing plates to determine the efficiency of transformation, yielding an initial library of 3.6×108 transformants. The transformation mixture was subsequently diluted to a volume of 400 ml LB and 20 μg/ml tetracycline, and grown for an additional 14 hrs. A phage stock was prepared by two successive polyethylene glycol (PEG) precipitations of the culture supernatant as described. The phage stock was finally resuspended in tris buffered saline/NaN3 and titered by infection of K91-kan cells (A21), yielding a total of 2.8×10^11 transforming units. The randomness of the inserts was confirmed by sequencing of individual clones. 4×10^10 transforming units were subsequently used to infect K91-kan cells to generate an amplified library. After 18 hrs phage were purified by three repetitive PEG precipitations yielding 10 ml of the amplified phage library (1.2-10^12 transforming units/ml) in TBS/NaN3. […]

(D)-Src SH3 domain [2] = molecular target: T3, (D)-Src SH3 domain (Gallus gallus, UniProt P00523); assay: Screening (selection rounds) of the phage library with the (D)-SH3 domain; format: binding, chicken; details: for Number of Isolates, low stringency: 4 rounds, 16 hrs phage incubation, washes 3', 5', 10' in rounds 2-4; for isolates after four rounds of selection: 29 clones sequenced after four rounds
Excerpt: The all D amino acid SH3 domain, sequence […] S-COOH-terminus (SEQ ID No: 1), residues 81-140 of chicken c-SRC, was synthesized on HMP resin (ABI/Perkin Elmer) with an ABI 431A peptide synthesizer and ABI fastmoc cycles (Fmoc chemistry with HBTU activation and capping with acetic anhydride). Protected D-amino acids were obtained from Bachem California., Bachem Bioscience, Advanced Chemtech, and Novabiochem. For D-Ile and D-Thr, the side chain enantiomers were used, in which the chirality of the side chain is also inverted relative to naturally occurring L-Thr and L-Ile. After completion of the synthesis, the NH2 -terminus of the peptide was modified with NHS-LC-biotin II (Pierce). After cleavage, the peptide was lyophilized, dissolved in 6 M guanidine HCl, pH 6.0, and dialyzed against 100 mM NaHPO4 and 100 mM NaCl, pH 6.0, with the use of dialysis tubing with a molecular cutoff of 3,500 daltons (D) (Spectra/Por). After dialysis the material was spun briefly to remove insoluble debris, and the supernatant was subsequently dialyzed against 5% acetic acid and lyophilized. The peptide was dissolved at a concentration of 3.3 mg/ml in Tris-buffered saline (50 mM Tris, pH 7.5, and 150 mM NaCl) containing 1 mM biotin. The full biotinylated 60 amino acid (D)-SH3 domain length product was refolded and purified by affinity chromatography on an all-(D) version of a known substrate for the Src SH3 domain (D)-[…] (SEQ ID NO:2), Yu, H., et al., Cell, 76:933 (1994)), that was biotinylated and immobilized on a streptavidin-agarose column (Pierce). This peptide is a derivative of an all (L)-peptide shown to bind to the all (L)-SH3 domain (Yu, H., et al., Cell,76:933-945 (1994)), with an NH2 -terminal YGG added to facilitate concentration determination (H. Edelhoch, Biochemistry, 6:1948 (1967)). The L-peptide with the same NH2 -terminal YGG served as a control ligand in the experiments.
Single wells of a flatbottom 96 well high binding E.I.A./R.I.A. plate (Costar) were coated overnight with 10 μg streptavidin (Pierce) in 100 μl 100 mM NaHCO3 at 4° C. After a single wash with water, wells were incubated with 100 μl (10.7 μg) of biotinylated (D)-SH3 for 1 hr. at 20° C., blocked for 2 hrs with 30 mg/ml dialyzed bovine serum albumin (BSA) in 100 mM NaHCO3, and again incubated with 100 μl ([…]) of biotinylated (D)-SH3 for 1 hr. Unliganded streptavidin was blocked for 30 minutes by the addition of 8 μl 5 mM biotin in tris-buffered saline (TBS). Wells were subsequently washed 5 times with phosphate buffered saline (PBS) and 0.1% Tween-20, and incubated overnight with 50 μl of the phage stock in TBS/NaN3 and 50 μl of TBS, 0.1% Tween-20, 1 mg/ml BSA and 0.05% NaN3. Wells were subsequently washed by six additions of 200 μl of TBS, 0.1% Tween-20 and 1 mg/ml BSA with increasing incubation times in the later rounds of the selection procedure. (D)-SH3 bound phage particles were subsequently eluted by the addition of 100 μl D-SH3 ligand peptide (715 μM), sequence D-[…]-amide (SEQ ID No: 2), for 15 minutes at 4° C., at a final concentration of 700 to 1000 μM peptide. Acid elution of phages in this screen gives no detectable preferential binding to D-SH3 coated wells after four rounds of selection. The eluate was subsequently used to infect K91-kan cells. Briefly 100 μl eluate was mixed with 100 μl K91 Terrific Broth cells (prepared as described) an incubated for 20 minutes at room temperature. The mixture was subsequently transferred into an Erlenmeyer flask containing 20 ml LB/0.2 μg/ml tetracycline. After 1 hr incubation while shaking at 37° C., tetracycline was added to a final concentration of 20 μg/ml, appropriate dilutions were plated on tetracycline-containing plates ([…]) to determine the titer of the eluate and the culture was incubated at 37° C. for 12-16 hrs. Phage were isolated from the supernatant by two PEG precipitations and the resulting phage stock was used for titering to determine the yield, and for the subsequent round of selection. […]

(D)-Src SH3 domain [3] = molecular target: T3, (D)-Src SH3 domain; assay: as above; format: binding, chicken; details: for Number of Isolates, high stringency: 4 rounds, 2 fold less (D)-Src SH3, 1 hr phage incubation, washes 10' in rounds 2-4
L-SH3 domain [4] = molecular target: T4, L-SH3 domain (Gallus gallus, UniProt P00523); assay: Screening of the phage library with the L-SH3 domain; format: binding, chicken
T4 construct: Residues 81 to 140 of chicken c-SRC were cloned; modified TrpLE leader (Met to Leu, Cys to Ala) (N, cleaved yes); His9 within the C-terminal region of the TrpLE leader (N, cleaved yes); made in house; host or cells: Escherichia coli BL21(DE3) pLysS, plasmid pMMHb-SRC SH3
Description: Phage display with the L-SH3 domain was also assessed. When the (L)-SH3 domain is used to screen a phage library (A12) for interacting sequences the poly-proline sequences that have been observed by others Rickles, R. J., et al., EMBO J., 13:5598 (1994); Sparks, A. B., J. Biol. Chem., 39:23853 (1994); Cheadle, C., et al., Ibid, 39:24034 (1994) are isolated.
The sequences of these peptides have features consistent with those described for class I and class II ligands of the SH3 domain ((Yu, H., et al., Cell, 76:933 (1994); Rickles, R. J. et al., EMBO J., 13:5598 (1994; Sparks, A. B., et al., J. Biol. Chem., 269:23853 (1994); Cheadle, C., et al., ibid., p. 24034)).

L-SH3 domain [5] = molecular target: T4, L-SH3 domain; assay: ELISA and NMR binding check of D-amino acid version of background sequence; design: species or system chicken; details: as judged by ELISA and NMR studies
[6] = test system: synthetic D-vasopressin (DVP); assay: Affinity chromatography on D-vasopressin (DVP) resin, in vitro selection of ssDNAs; format: binding; details: for binding to DVP: affinity chromatography, positive ssDNA
Excerpt: In the first step toward generating an antagonist of the peptide hormone L-vasopressin, an in vitro selection was used to isolate single-stranded DNAs (ssDNAs) that bind synthetic D-vasopressin (DVP). A starting pool of 10^16 different 96-mers was synthesized on a DNA synthesizer. Each pool molecule contained a central region with 60 random-sequence positions that was flanked by two 18-nt defined regions. Molecules within this starting pool that bind DVP were enriched by affinity chromatography. The affinity resin was prepared by coupling biotinylated DVP to streptavidin agarose. The ssDNA pool was radiolabeled, denatured, renatured in a physiological buffer and passed over this resin. […] Eluted pool was amplified by PCR using a negative-strand "primer-terminator", that is, an oligonucleotide bearing a central segment of non-nucleotide material that blocks further extension of the positive strand (Williams, K. P. and Bartel, D. P., Nucleic Acids Res., 23:4220-4221 (1995)). Such PCR results in a substantial size difference between the two product strands, facilitating gel-purification of the positivestrand ssDNA pool. This combination of affinity chromatography and PCR constituted one cycle of selection amplification.
After thirteen iterations of the selectionamplification cycle the pool was cloned. […] Positive ssDNA of each sequence binds DVP and both have potential to form very similar secondary structures.

With “(D)-YGGRELPPLPRF ([dY]GG[dR][dE][dL][dP][dP][dL][dP][dR][dF]; also: biotinylated, site not given here) [all-(D) version of a known substrate for the Src SH3 domain]” as the molecule, how does the “retention of bacterially expressed (L)-SH3 on peptide column” value ((L)-SH3) read?
Its value is “not on the (D)-enantiomer”.

How did the “number in parentheses after sequence, Con A screen” value [1] turn out when “AS M W M Y P Y P W G V SA (ASMWMYPYPWGVSA)” was run?
The value was 9.

With “AS W R Y N Y A F M R Y SA (ASWRYNYAFMRYSA)” as the molecule, how does the “number in parentheses after sequence, Con A screen” value [1] read?
Its value is 1.

“CAYGFKLGLIKC [clone has alanine to arginine substitution directly amino terminal to the insert]” was tested. Which “Number of Isolates, low stringency” value ((D)-Src SH3 domain [2]) did it give?
The value was 1.

How did the “Number of Isolates, low stringency” value ((D)-Src SH3 domain [2]) turn out when CKRFVWRGQALC was run?
The value was 10.

And the “isolates after four rounds of selection” value ((D)-Src SH3 domain [2])?
Its value is 10 isolates.

And the “Number of Isolates, high stringency” value ((D)-Src SH3 domain [3])?
Its value is 14.

CLARSRLPAIPS was tested. Which “isolates after four rounds of selection with the L-SH3 domain” value (L-SH3 domain [4]) did it give?
Its value is “nine”.

With CLMGLRLGLLPC as the molecule, how does the “Number of Isolates, low stringency” value ((D)-Src SH3 domain [2]) read?
The value was 4.

What about the “sequences revealed after fifth round of selection” value ((D)-Src SH3 domain [3]; fifth round with neutravidin as a matrix) of the same molecule?
The value was “only sequences of the fdSRC-2-type”.

Which “Number of Isolates, low stringency” value ((D)-Src SH3 domain [2]) does the source give for CLSGLRLGLVPC here?
Its value is 2.

CSRASWRGLLFC was tested. Which “Number of Isolates, high stringency” value ((D)-Src SH3 domain [3]) did it give?
Its value is 1.

Which results are given for CWYLGYWPGQEC?
Number of Isolates, low stringency ((D)-Src SH3 domain [2]): 12; isolates after four rounds of selection ((D)-Src SH3 domain [2]): 12 isolates

“D-amino acid version of this sequence: D-amino acid version of CKRFVWRGQALC (SEQ ID No: 13) ([dC][dK][dR][dF][dV][dW][dR]G[dQ][dA][dL][dC]; cysteine pairing not given here)” was tested. Which “binding to the L-SH3 domain” value (L-SH3 domain [5]) did it give?
Its value is “fails to bind to the L-SH3 domain”.

How did the “isolates after four rounds of selection with the L-SH3 domain” value (L-SH3 domain [4]) turn out when SRMSPLVPLRNS was run?
The value was “one”.

B1: 69.1: D-vasopressin aptamer, deletion derivative of 96.4 (nucleic acid)
chain: TCTAACGTGAATGATAGACGTTACGTGTCTACACTATGTCGAGTTGCTGTGTGCCGATGAACGTGGGAT
modifications: chemistry not given here
What does the source list for B1?
elution from the DVP resin by L-vasopressin ([6]; DVP resin, L-vasopressin): not eluted from the DVP resin by L-vasopressin; binding to DVP [6]: appears to bind DVP better than does the parent sequence

B2: 96.2: D-vasopressin aptamer, ssDNA 96-mer (nucleic acid)
chain: TCTAACGTGAATGATAGACGGCGAATCCCCAATGCGAAGCAGTGGTTTTGCAGTCGAGTTGCTGTGTGCCGATGAGCGTTAACTTATTCGACCAAA
modifications: DNA, backbone not given here
notes: D-vasopressin aptamer, ssDNA 96-mer
B2 was tested. Which “binding to DVP” value [6] did it give?
Its value is “binds DVP”.

B3: 96.4: D-vasopressin aptamer, ssDNA 96-mer (nucleic acid)
chain: TCTAACGTGAATGATAGACGTTACGTGTCTACACTATGTCGAGTTGCTGTGTGCCGATGAACGTGGGATTAGAGCGTGTTAACTTATTCGACCAAA
modifications: DNA, backbone not given here
notes: as for B2
With B3 as the molecule, how does the “binding to DVP” value [6] read?
The value was “binds DVP”.
